Experiment: Stability of purified ArsR protein to freeze thaw
Assay type: physicochemical
Settings: post-dialysis, 0.48 mg/ml in 50 mM Hepes pH 8.5, 200 mM NaCl, 15 mM DTT, 5% glycerol
Procedure: Dialysis was performed next. Glycerol was added to bring the pool to a concentration of 5% glycerol by volume. The pool was then diluted to approximately 1 mg/ml with the dialysis buffer listed below. The faction pool was dialyzed in 3500 Molecular Weight Cutoff tubing placed in 1 liter consisting of 50 mM Hepes, pH 8.5, 200 mM NaCl, 1 mM EDTA, 15 mM DTT, and 5% glycerol for five hours. The dialysis tubing was then placed in 4 liters of 50 mM Hepes, pH 8.5, 200 mM NaCl, 15 mM DTT, and 5% glycerol overnight to remove any EDTA. The pool was then clarified by centrifugation, the protein concentration was determined, and a SDS-PAGE was run of the results.
The final product of a pilot production (5 g whole cell pellet from 34 g total) yielded a protein concentration of 480 μg/ml (in a 0.05% polysorbate solution for stabilization of the protein and reduction of non-specific binding to the sensor surface). The total volume for this experiment was 3.6 ml, which yielded a total protein yield of 1.75 mg. This was dissolved in a buffer of 50 mM Hepes, pH 8.5, 200 mM NaCl, 15 mM DTT, and 5% Glycerol. Purity was greater than 95% by SDS PAGE. In this system, induction was tightly regulated and successful, with 30-40% of protein production in soluble fraction. The initial yield from IMAC for dialysis was 5 mg at 1.0 mg/ml., with visible precipitation post dialysis.

B1: ArsR: E. coli arsenic-binding, DNA-binding ars operon repressor protein, SEQ ID NO:2, expressed from codon-optimized synthetic gene (protein)
chain: MLQLTPLQLFKNLSDETRLGIVLLLREMGELCVCDLCMALDQSQPKISRHLAMLRESGILLDRKQGKWVHYRLSPHIPSWAAQIIEQAWLSQQDDVQVIARKLASVNCSGSSKAVCI
- stability to freeze thaw cycles: stable to multiple freeze thaw cycles
